In US20210155697A1 (UNITY BIOTECHNOLOGY, published 2021):
Numbering of substitutions follows the chain as printed.

B1: Angiopoietin-1 (ligand, UniProt Q15389 20-498, looked up)
chain: SNQRRSPENSGRRYNRIQHGQCAYTFILPEHDGNCRESTTDQYNTNALQRDAPHVEPDFSSQKLQHLEHVMENYTQWLQKLENYIVENMKSEMAQIQQNAVQNHTATMLEIGTSLLSQTAEQTRKLTDVETQVLNQTSRLEIQLLENSLSTYKLEKQLLQQTNEILKIHEKNSLLEHKILEMEGKHKEELDTLKEEKENLQGLVTRQTYIIQELEKQLNRATTNNSVLQKQQLELMDTVHNLVNLCTKEGVLLKGGKREEEKPFRDCADVYQAGFNKSGIYTIYINNMPEPKKVFCNMDVNGGGWTVIQHREDGSLDFQRGWKEYKMGFGNPSGEYWLGNEFIFAITSQRQYMLRIELMDWEGNRAYSQYDRFHIGNEKQNYRLYLKGHTGTAGKQSSLILHGADFSTKDADNDNCMCKCALMLTGGWWFDACGPSNLNGMFYTAGQNHGKLNGIKWHYFKGPSYSLRSTTMMIRPLDF
B2: human anti-Tie2 antibody #1 (antibody, V domains shown)
VH: DVQLVESGGGVVRPGESLRLSCAASGFTFSSYAMSWVRQAPGEGLEWVARISDYTIYYADSVKGRFTISRDNSKNTLYLQMNSLRAEDTAVYYCAKSGPKSGKYWNNFFDSWGLGTLVTVSS
VL: EIVLTQSPGTLSVSPGERATLTCRASQSVKTDLAWYQQKPGQAPRLLIYGATTRATGIPARFSGSGSGTEFTLTITNLQSEDFAVYYCQQYYVWPPLTFGGGTKVEIK
notes: also called Ab #1; Antibody Clone # 1
B3: human anti-Tie2 antibody #2 (antibody, V domains shown)
VH: DVQLVESGGGVVRPGESLRLSCAASGFSFINFAMTWVRQAPGEGPEWVSLISDDGRGNRPYYADSVKGRFTISRDNSKNILYLQMNSLRVEDTATYYCAKVSWDVFFDYWGLGTVVTVSS
VL: EIVLTQSPGTVSLSPGERVTLSCRASQPIDVYLAWYQQKPGQAPRLLIYGANRRAIDIPDRFSGSGSGTEFTLTINSLQNEDFAVYFCQQYMTWPPVTFGGGTKVEIK
notes: also called Ab #2; Antibody Clone # 2
B4: anti-Tie2 antibody #31 (antibody, V domains shown)
VH: B3 VH with L18P, V115L
VL: B3 VL
notes: also called Ab #31; Antibody Clone # 31
B5: human anti-Tie2 antibody #3 (antibody, V domains shown)
VH: DVQLVESGGGVVRPGESLRLSCTASGFTFDSYGMSWVRQAPGKGLEWVSSINVGDNTYYADSVRGRFIISRDSSRNTLYLQMNSLTAEDTAVYYCANWNSFFDYWGLGTLVTVSS
VL: EIVLTQSPGTLSLSPGEIATLSCRASQNVRSDLAWYQQKPGQAPRLLIYDASNRATGIPDRFSGSGSGTDFTLTISSLQSEDFAVYYCQQYSNWPPLTFGGGTKVEIK
notes: also called Ab #3; Antibody Clone # 3
B6: anti-Tie2 antibody #5 (antibody, V domains shown)
VH: DVQLVESGGGVVRPGESLRLSCTASGFSFDVYAMTWVRQAPGKGLEWLTLISGTGRMTYYADSVKGRFTVSRDNSKKTLYLQMNSLRAEDTAVYYCAKDPFGHGFFDYWGLGTLVTVSS
VL: B5 VL with I18R, N28T, R30G, D32K, N53T, S92N
notes: also called Ab #5; Antibody Clone # 5
B7: anti-Tie2 antibody #6 (antibody, V domains shown)
VH: B6 VH
VL: EIVLTQSPGTLTLSPGETATLTCRASQSVNRNLAWYQEKPDQAPRLLIYDARTRATGVPDRFSGSGSGTDFTLTINSLQSEDFAVYVCQQYYDWPPFTFGGGTKVEIK
notes: also called Ab #6; Antibody Clone # 6
B8: antibody clone #3 Fab (Fab, V domains shown)
VH: B5 VH
VL: B5 VL

Tests used:
[1] = target: T1, human full-length Tie2 on cells (human, UniProt Q02763 23-1124); assay: cell-based or functional assay
[2] = target: T2, cynomolgus monkey full-length Tie2 on HEK293 cells (cynomolgus monkey, UniProt G7PS68 23-1124); assay: flow cytometry on HEK/cyno Tie2 cells; Apparent Kd (EC50 binding)
T2 construct: whole, on cells; also called HEK293/Cyno Tie2; HEK/cyno Tie2
Excerpt: (§1) Briefly, expression plasmids containing the full-length Tie2 coding sequence for each species were used to transfect primary human endothelial cells (HUVECs) as well as human embryonic kidney (HEK293) cells. A stable cell population was selected by treating transfectants with puromycin antibiotic over the course of 2 weeks and single cell clones were generated using fluorescence activated cell sorting. Upon confirmation of cell surface expression of these Tie2 variants, cell lines were used to determine apparent Kd (EC50) values of anti-Tie2 antibodies on the various Tie2 proteins. […] Cells were labeled with decreasing concentrations of anti-Tie2 antibodies #1, #2, and #3 (10, 5, 2.5, 1, […], 0.63, 0.31, and 0.16 ug/mL) or non-specific hIgG1 antibody (10 ug/mL), followed by labeling with a rabbit anti-human IgG antibody conjugated to an Alexa Fluor 488 fluorophore (20 ug/ml). EC50 values were generated using ForeCyt™ software.

[3] = target: T3, murine full-length Tie2 on HEK293 cells (mouse, UniProt Q02858 23-1122); assay: flow cytometry on HEK293/Murine Tie2 cells, mAb at 10 ug/mL
T3 construct: whole, on cells; also called HEK293/Murine Tie2; HEK/mTie2
Excerpt: as §1
Target sequence in this assay (Q02858 23-1122): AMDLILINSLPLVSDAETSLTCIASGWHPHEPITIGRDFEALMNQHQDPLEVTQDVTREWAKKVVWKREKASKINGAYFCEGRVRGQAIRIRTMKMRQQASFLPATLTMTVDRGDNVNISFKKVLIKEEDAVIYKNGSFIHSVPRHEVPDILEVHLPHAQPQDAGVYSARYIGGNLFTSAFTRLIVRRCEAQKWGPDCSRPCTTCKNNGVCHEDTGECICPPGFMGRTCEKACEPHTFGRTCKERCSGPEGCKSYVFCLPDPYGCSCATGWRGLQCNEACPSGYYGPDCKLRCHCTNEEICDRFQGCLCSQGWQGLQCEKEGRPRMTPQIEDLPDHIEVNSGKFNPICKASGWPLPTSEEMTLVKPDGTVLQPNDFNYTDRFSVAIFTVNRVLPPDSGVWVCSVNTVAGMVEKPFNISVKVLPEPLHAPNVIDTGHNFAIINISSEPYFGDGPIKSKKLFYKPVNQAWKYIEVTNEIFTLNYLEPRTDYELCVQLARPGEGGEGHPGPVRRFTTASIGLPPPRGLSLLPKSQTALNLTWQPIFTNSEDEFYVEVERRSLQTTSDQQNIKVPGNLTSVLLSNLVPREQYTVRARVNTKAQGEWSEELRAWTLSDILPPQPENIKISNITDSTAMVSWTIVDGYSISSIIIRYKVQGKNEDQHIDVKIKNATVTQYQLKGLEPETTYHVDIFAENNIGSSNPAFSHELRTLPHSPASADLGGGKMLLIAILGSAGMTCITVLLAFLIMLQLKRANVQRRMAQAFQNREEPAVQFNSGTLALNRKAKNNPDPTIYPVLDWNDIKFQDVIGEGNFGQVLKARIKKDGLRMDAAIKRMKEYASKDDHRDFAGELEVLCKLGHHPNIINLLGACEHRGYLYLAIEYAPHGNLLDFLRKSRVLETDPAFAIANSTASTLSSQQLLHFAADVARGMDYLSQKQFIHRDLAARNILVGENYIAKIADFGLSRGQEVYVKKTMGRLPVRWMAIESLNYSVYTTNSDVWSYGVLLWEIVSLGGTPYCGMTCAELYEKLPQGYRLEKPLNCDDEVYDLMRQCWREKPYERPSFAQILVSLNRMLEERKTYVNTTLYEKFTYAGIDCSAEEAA

[4] = target: T1, human full-length Tie2 on cells; assay: flow cytometry on HUVEC; Apparent Kd (EC50 binding)
Excerpt: as §1

[5] = target: T2, cynomolgus monkey full-length Tie2 on …; assay: flow cytometry on HEK293/Cyno Tie2 cells, mAb at 10 ug/mL
Excerpt: as §1

[6] = target: T1, human full-length Tie2 on cells; assay: flow cytometry on HEK293/Human Tie2 cells, mAb at 10 ug/mL; set-up: unit not given here
Excerpt: as §1
Target sequence in this assay (Q02763 23-1124 limits assumed): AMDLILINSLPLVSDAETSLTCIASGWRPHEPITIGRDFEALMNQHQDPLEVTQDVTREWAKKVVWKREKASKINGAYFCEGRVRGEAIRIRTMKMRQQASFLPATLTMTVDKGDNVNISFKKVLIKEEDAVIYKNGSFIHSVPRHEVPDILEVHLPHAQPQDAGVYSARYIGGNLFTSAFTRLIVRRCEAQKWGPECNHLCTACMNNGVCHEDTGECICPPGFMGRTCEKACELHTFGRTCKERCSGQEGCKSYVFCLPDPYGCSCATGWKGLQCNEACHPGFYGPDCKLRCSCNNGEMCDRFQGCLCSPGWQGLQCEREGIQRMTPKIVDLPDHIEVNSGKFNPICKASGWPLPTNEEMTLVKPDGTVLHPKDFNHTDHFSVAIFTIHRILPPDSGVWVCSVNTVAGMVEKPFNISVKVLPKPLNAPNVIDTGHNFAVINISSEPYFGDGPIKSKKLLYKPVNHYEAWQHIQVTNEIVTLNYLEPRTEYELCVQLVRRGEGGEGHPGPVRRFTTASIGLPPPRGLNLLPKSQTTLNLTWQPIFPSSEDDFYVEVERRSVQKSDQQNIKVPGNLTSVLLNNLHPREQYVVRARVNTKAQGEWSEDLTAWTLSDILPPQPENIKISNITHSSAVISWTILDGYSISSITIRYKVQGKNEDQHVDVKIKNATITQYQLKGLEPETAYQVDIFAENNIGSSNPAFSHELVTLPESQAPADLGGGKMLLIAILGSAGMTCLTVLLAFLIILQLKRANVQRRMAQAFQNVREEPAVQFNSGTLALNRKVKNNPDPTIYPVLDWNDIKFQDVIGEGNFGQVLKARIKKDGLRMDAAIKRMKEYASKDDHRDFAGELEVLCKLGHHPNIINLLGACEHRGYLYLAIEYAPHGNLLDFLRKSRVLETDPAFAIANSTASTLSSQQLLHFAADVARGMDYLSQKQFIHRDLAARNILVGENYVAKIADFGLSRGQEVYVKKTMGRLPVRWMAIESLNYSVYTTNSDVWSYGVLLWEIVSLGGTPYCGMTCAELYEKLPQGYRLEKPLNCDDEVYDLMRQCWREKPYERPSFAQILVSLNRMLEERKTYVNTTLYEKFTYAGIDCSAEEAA

[7] = target: T1, human full-length Tie2 on cells; assay: flow cytometry on HEK/huTie2 cells; Apparent Kd (EC50 binding)
Excerpt: as §1

[8] = target: T4, rat full-length Tie2 on HEK cells (rat, UniProt A0ABK0L6J5 19-1116); assay: flow cytometry on HEK/ratTie2 cells; Apparent Kd (EC50 binding)
T4 construct: whole, on cells; also called HEK/ratTie2
Excerpt: as §1

[9] = target: T5, rabbit full-length Tie2 on HEK cells (rabbit); assay: flow cytometry on HEK/RbTie2 cells; Apparent Kd (EC50 binding)
T5 chain: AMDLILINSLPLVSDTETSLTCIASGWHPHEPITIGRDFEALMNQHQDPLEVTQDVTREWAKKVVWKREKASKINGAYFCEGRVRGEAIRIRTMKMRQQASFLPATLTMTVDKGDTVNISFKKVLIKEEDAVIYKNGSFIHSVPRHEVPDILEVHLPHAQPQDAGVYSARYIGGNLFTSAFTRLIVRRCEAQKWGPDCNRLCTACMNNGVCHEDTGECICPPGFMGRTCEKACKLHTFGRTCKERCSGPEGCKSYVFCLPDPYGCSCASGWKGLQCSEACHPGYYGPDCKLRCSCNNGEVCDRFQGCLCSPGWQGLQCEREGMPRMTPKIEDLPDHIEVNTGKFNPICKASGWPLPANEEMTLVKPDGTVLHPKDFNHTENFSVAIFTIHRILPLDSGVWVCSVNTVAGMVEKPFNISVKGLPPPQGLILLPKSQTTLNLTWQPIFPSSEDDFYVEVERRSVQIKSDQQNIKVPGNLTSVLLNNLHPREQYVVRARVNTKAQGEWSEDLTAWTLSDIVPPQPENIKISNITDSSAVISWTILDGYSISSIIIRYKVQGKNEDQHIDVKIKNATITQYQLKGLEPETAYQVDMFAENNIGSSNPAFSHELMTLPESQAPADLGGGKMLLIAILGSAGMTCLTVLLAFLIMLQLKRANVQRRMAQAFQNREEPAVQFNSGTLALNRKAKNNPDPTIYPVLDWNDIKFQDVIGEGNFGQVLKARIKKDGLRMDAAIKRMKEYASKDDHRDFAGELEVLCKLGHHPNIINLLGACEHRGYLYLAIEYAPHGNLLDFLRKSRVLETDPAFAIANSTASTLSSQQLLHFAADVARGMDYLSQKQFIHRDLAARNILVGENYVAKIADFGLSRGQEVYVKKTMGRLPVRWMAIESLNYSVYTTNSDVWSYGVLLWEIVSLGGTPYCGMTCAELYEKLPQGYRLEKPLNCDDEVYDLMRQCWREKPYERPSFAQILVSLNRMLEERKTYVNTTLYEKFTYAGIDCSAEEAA
Excerpt: as §1

[10] = target: T3, murine full-length Tie2 on HEK293 cells; assay: flow cytometry on HEK/mTie2 cells; Apparent Kd (EC50 binding)
Excerpt: as §1

[11] = target: T6, recombinant mouse Tie2 ECD protein (mouse, UniProt Q02858 23-746); assay: SPR (BIACORE), Tie2 ECD immobilized on CM5, Fab as analyte, 25 C
T6 construct: extracellular domain
T6 sequence (Q02858 23-746): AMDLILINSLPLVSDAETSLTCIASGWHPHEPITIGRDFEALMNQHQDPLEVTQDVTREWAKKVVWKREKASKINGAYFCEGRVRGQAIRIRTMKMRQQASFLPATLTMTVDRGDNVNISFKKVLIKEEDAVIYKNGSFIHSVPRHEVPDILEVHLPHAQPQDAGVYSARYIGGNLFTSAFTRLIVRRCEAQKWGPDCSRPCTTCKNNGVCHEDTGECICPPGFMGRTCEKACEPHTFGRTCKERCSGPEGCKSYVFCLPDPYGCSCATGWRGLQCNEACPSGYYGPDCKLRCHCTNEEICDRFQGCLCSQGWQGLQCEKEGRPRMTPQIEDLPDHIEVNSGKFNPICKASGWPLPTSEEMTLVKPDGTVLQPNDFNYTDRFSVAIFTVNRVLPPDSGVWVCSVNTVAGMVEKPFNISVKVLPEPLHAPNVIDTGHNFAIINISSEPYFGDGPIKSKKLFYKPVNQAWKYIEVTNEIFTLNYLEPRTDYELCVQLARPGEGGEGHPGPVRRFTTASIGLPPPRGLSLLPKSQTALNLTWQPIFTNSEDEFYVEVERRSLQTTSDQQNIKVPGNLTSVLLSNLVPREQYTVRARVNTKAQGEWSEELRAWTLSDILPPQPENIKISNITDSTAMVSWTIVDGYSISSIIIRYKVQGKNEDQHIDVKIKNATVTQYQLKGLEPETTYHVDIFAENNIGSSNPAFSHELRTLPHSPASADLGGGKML
Experimental: (§2) BIACORE™ (BIAcore, Inc., Piscataway, N.J.) was performed at 25° C. with immobilized human, rat or mouse Tie2 ECD antigens on carboxymethylated dextran biosensor chips (CM5) chips at about 10 response units (RU). CM5 chips were activated with N-ethyl-N′-(3-dimethylaminopropyl)-carbodiimide hydrochloride (EDC) and N-hydroxysuccinimide (NFIS) according to the supplier's instructions. All Tie2 ECD antigens were diluted with 10 mM sodium acetate, pH 4.8, to […] before injection at a flow rate of 5 μl/minute to achieve approximately 10 RU of coupled protein. Following the injection of each Tie2 ECD, 1 M ethanolamine was injected to block unreacted groups. For kinetics measurements, two-fold serial dilutions of the antibody clone #3 Fab (0.78 nM to 500 nM) were injected in PBS with 0.05% polysorbate 20 (TWEEN™-20) surfactant (PBST) at 25° C. at a flow rate of approximately 25 μl/min. Association rates (kon) and dissociation rates (koff) were calculated using a simple one-to-one Langmuir binding model (BIACORE™ Evaluation Software version 3.2) by simultaneously fitting the association and dissociation sensorgrams. The equilibrium dissociation constant (KD) was calculated as the ratio koff/kon. See, for example, Chen et al., J. Mol. Biol. 293:865-881 (1999).

[12] = target: T7, Rat Tie2 ECD (rat, UniProt A0ABK0L6J5 19-740); assay: as above
T7 construct: extracellular domain
Experimental: as §2

[13] = target: T8, recombinant human Tie2 ECD protein (human, UniProt Q02763 23-748); assay: as above
T8 construct: also called human Tie2 extracellular domain
T8 sequence (Q02763 23-748 limits assumed): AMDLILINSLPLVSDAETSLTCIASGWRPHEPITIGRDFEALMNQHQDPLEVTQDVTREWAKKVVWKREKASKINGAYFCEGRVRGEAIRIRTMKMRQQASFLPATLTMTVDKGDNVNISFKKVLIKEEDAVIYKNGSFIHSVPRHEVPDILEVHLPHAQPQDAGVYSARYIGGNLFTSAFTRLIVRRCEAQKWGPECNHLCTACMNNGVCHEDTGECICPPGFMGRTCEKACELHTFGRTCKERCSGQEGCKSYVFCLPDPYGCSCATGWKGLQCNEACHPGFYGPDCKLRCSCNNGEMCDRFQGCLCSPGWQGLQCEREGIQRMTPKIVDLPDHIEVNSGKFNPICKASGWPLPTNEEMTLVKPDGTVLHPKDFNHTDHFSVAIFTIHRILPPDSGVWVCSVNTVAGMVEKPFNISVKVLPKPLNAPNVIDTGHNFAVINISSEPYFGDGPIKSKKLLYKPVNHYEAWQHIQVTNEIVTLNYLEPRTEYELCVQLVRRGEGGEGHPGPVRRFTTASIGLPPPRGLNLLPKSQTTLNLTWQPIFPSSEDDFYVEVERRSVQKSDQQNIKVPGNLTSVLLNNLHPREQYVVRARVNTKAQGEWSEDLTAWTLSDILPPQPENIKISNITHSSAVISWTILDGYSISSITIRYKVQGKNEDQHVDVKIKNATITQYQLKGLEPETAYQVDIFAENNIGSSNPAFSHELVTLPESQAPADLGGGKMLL
Experimental: as §2

| Binder | EC50 of pAkt relative to total Akt in HUVEC cells (western blot, quantitative fluorescence imaging) [1] [nM] | EC50 [2] [nM] | Cross-Reactivity Screen (mAb at 10 ug/mL) [3] | EC50 [4] [nM] | Cross-Reactivity Screen (mAb at 10 ug/mL) [5] | Cross-Reactivity Screen (mAb at 10 ug/mL) [6] | EC50 [7] [nM] | also measured |
| --- | --- | --- | --- | --- | --- | --- | --- | --- |
| B1 | 0.54 | – | – | – | – | – | – | – |
| B2 | 0.91 | 7.8 | 0.4 | 2 | 74.1 | 60.7 | 8 | – |
| B3 | 0.48 | 7.7 | 41.7 | 1 | 53.2 | 64.9 | 2.7 | EC50 [8]: 1.4 nM; EC50 [9]: 4.1 nM |
| B4 | – | – | 28.5 | – | 47.5 | 65.3 | – | – |
| B5 | 0.45 | 3.7 | 32.5 | 1.7 | 40.2 | 40.2 | 1.9 | EC50 [8]: 4.6 nM; EC50 [9]: 3.3 nM; EC50 [10]: 6.3 nM |
| B6 | – | – | 0.2 | – | 73.1 | 60.2 | – | – |
| B7 | – | – | 0.3 | – | 78.8 | 63.7 | – | – |
| B8 | – | – | – | – | – | – | – | Kd [11]: 3.21 nM; koff [11]: 0.000876 s⁻¹; kon [11]: 273000 M⁻¹ s⁻¹; Kd [12]: 2.56 nM; kon [12]: 254000 M⁻¹ s⁻¹; Kd [13]: 2.34 nM; koff [13]: 0.000377 s⁻¹; kon [13]: 161000 M⁻¹ s⁻¹ |
